In US20250263504A1 (Takeda / Millennium, published 2025):

Legend:
Factor XIIa (FXIIa) = biological target: T1, Factor XIIa (FXIIa) (UniProt P00748 20-372; P00748 373-615, limits assumed); test: enzyme inhibition, corrected Ki,app
T1 construct: the description speaks of human FXIIa; also called active Factor XII
T1 sequence (looked up) 1: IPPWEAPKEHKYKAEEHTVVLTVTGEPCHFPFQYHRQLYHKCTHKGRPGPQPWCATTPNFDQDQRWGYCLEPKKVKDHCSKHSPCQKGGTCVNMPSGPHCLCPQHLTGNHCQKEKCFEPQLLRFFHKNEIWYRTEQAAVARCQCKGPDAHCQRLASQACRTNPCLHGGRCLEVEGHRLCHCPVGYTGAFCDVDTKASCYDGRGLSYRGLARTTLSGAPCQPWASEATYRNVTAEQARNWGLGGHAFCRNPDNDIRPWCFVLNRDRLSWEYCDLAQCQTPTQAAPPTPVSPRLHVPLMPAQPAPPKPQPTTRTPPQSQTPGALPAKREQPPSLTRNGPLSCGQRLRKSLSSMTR
T1 sequence (looked up) 2: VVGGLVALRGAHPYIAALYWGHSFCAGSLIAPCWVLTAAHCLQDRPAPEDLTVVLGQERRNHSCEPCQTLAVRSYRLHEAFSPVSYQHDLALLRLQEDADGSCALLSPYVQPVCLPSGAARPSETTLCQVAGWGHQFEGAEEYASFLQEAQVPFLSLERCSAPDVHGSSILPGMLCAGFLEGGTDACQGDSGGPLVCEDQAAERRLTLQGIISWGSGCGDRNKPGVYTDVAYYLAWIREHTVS

plasma kallikrein (pKal) = biological target: T2, plasma kallikrein (pKal) (UniProt P03952 20-390; P03952 391-638, limits assumed); test: enzyme inhibition, corrected Ki,app
T2 construct: the description speaks of human pKal; also called active pKal
T2 sequence (P03952 20-390 limits assumed, form in doubt, chain 1 of 2): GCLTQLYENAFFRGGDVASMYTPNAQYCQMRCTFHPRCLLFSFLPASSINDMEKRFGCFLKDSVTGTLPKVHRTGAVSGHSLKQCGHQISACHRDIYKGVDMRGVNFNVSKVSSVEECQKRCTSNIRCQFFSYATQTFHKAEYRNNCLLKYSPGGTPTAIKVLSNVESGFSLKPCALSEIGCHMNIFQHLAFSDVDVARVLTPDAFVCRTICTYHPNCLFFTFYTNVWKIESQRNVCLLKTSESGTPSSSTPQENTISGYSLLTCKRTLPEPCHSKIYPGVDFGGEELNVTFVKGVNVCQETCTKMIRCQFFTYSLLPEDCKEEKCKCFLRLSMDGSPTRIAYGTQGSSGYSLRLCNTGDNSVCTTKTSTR
T2 sequence (P03952 391-638 limits assumed, form in doubt, chain 2 of 2): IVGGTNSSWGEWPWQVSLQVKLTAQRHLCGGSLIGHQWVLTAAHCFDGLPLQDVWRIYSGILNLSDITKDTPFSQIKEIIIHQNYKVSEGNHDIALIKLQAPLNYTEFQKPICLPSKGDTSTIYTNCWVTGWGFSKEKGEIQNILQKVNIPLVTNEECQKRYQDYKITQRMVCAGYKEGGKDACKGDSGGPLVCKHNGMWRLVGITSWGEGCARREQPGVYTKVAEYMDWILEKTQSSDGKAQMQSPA

B1: 620I-X0136-D06 (bispecific antibody)
heavy: not shown
light: DIQMTQSPSTLSASVGDRVTITCRASQSISSWLAWYQQKPGKAPKLLIYKASTLESGVPSRFSGSGSGTEFTLTISSLQPDDFATYYCQQYNTYWTFGQGTKVEIKRTVAAPSVFIFPPSDEQLKSGTASVVCLLNNFYPREAKVQWKVDNALQSGNSQESVTEQDSKDSTYSLSSTLTLSKADYEKHKVYACEVTHQGLSSPVTKSFNRGEC
notes: also called 620I-X136-D06
Ki (Factor XIIa (FXIIa)): 0.084 nM | Ki (plasma kallikrein (pKal)): 0.176 nM

B2: 620I-X0139-G02 (bispecific antibody)
heavy: not shown
light: DIQMTQSPSTLSASVGDRVTITCRASQSISSWLAWYQQKPGKAPKLLIYKASTLESGVPSRFSGSGSGTEFTLTISSLQPDDFATYYCQQYNTYWTFGQGTKVEIKRTVAAPSVFIFPPSDEQLKSGTASVVCLLNNFYPREAKVQWKVDNALQSGNSQESVTEQDSKDSTYSLSSTLTLSKADYEKHKVYACEVTHQGLSSPVTKSFNRGEC
notes: also called 620I-X139-G02
Ki (Factor XIIa (FXIIa)): 0.161 nM | Ki (plasma kallikrein (pKal)): 0.171 nM

B3: 620I-X0137-A10 (bispecific antibody)
heavy: not shown
light: DIQMTQSPSTLSASVGDRVTITCRASQSISSWLAWYQQKPGKAPKLLIYKASTLESGVPSRFSGSGSGTEFTLTISSLQPDDFATYYCQQYNTYWTFGQGTKVEIKRTVAAPSVFIFPPSDEQLKSGTASVVCLLNNFYPREAKVQWKVDNALQSGNSQESVTEQDSKDSTYSLSSTLTLSKADYEKHKVYACEVTHQGLSSPVTKSFNRGEC
notes: also called 620I-X137-A10
Ki (Factor XIIa (FXIIa)): 0.205 nM | Ki (plasma kallikrein (pKal)): 0.195 nM

B4: 620I-X0136-F07 (bispecific antibody)
heavy: not shown
light: DIQMTQSPSTLSASVGDRVTITCRASQSISSWLAWYQQKPGKAPKLLIYKASTLESGVPSRFSGSGSGTEFTLTISSLQPDDFATYYCQQYNTYWTFGQGTKVEIKRTVAAPSVFIFPPSDEQLKSGTASVVCLLNNFYPREAKVQWKVDNALQSGNSQESVTEQDSKDSTYSLSSTLTLSKADYEKHKVYACEVTHQGLSSPVTKSFNRGEC
notes: also called 620I-X136-F07
Ki (Factor XIIa (FXIIa)): 0.167 nM | Ki (plasma kallikrein (pKal)): 0.183 nM

B5: 620I-X0136-E05 (bispecific antibody)
heavy: not shown
light: DIQMTQSPSTLSASVGDRVTITCRASQSISSWLAWYQQKPGKAPKLLIYKASTLESGVPSRFSGSGSGTEFTLTISSLQPDDFATYYCQQYNTYWTFGQGTKVEIKRTVAAPSVFIFPPSDEQLKSGTASVVCLLNNFYPREAKVQWKVDNALQSGNSQESVTEQDSKDSTYSLSSTLTLSKADYEKHKVYACEVTHQGLSSPVTKSFNRGEC
notes: also called 620I-X136-E05
Ki (Factor XIIa (FXIIa)): 0.172 nM | Ki (plasma kallikrein (pKal)): 0.158 nM

B6: 620I-X0138-A01 (bispecific antibody)
heavy: not shown
light: DIQMTQSPSTLSASVGDRVTITCRASQSISSWLAWYQQKPGKAPKLLIYKASTLESGVPSRFSGSGSGTEFTLTISSLQPDDFATYYCQQYNTYWTFGQGTKVEIKRTVAAPSVFIFPPSDEQLKSGTASVVCLLNNFYPREAKVQWKVDNALQSGNSQESVTEQDSKDSTYSLSSTLTLSKADYEKHKVYACEVTHQGLSSPVTKSFNRGEC
notes: also called 620I-X138-A01
Ki (Factor XIIa (FXIIa)): 0.465 nM | Ki (plasma kallikrein (pKal)): 0.154 nM

B7: 620I-X0136-E07 (bispecific antibody)
heavy: not shown
light: DIQMTQSPSTLSASVGDRVTITCRASQSISSWLAWYQQKPGKAPKLLIYKASTLESGVPSRFSGSGSGTEFTLTISSLQPDDFATYYCQQYNTYWTFGQGTKVEIKRTVAAPSVFIFPPSDEQLKSGTASVVCLLNNFYPREAKVQWKVDNALQSGNSQESVTEQDSKDSTYSLSSTLTLSKADYEKHKVYACEVTHQGLSSPVTKSFNRGEC
notes: also called 620I-X136-E07
Ki (Factor XIIa (FXIIa)): 0.312 nM | Ki (plasma kallikrein (pKal)): 0.19 nM

B8: 620I-X0136-D12 (bispecific antibody)
heavy: not shown
light: DIQMTQSPSTLSASVGDRVTITCRASQSISSWLAWYQQKPGKAPKLLIYKASTLESGVPSRFSGSGSGTEFTLTISSLQPDDFATYYCQQYNTYWTFGQGTKVEIKRTVAAPSVFIFPPSDEQLKSGTASVVCLLNNFYPREAKVQWKVDNALQSGNSQESVTEQDSKDSTYSLSSTLTLSKADYEKHKVYACEVTHQGLSSPVTKSFNRGEC
notes: also called 620I-X136-D12
Ki (Factor XIIa (FXIIa)): 0.063 nM | Ki (plasma kallikrein (pKal)): 0.179 nM

B9: 620I-X0136-G05 (bispecific antibody)
heavy: not shown
light: DIQMTQSPSTLSASVGDRVTITCRASQSISSWLAWYQQKPGKAPKLLIYKASTLESGVPSRFSGSGSGTEFTLTISSLQPDDFATYYCQQYNTYWTFGQGTKVEIKRTVAAPSVFIFPPSDEQLKSGTASVVCLLNNFYPREAKVQWKVDNALQSGNSQESVTEQDSKDSTYSLSSTLTLSKADYEKHKVYACEVTHQGLSSPVTKSFNRGEC
notes: also called 620I-X136-G05
Ki (Factor XIIa (FXIIa)): 0.1 nM | Ki (plasma kallikrein (pKal)): 0.179 nM

B10: 620I-X0137-B08 (bispecific antibody)
heavy: not shown
light: DIQMTQSPSTLSASVGDRVTITCRASQSISSWLAWYQQKPGKAPKLLIYKASTLESGVPSRFSGSGSGTEFTLTISSLQPDDFATYYCQQYNTYWTFGQGTKVEIKRTVAAPSVFIFPPSDEQLKSGTASVVCLLNNFYPREAKVQWKVDNALQSGNSQESVTEQDSKDSTYSLSSTLTLSKADYEKHKVYACEVTHQGLSSPVTKSFNRGEC
notes: also called 620I-X137-B08
Ki (Factor XIIa (FXIIa)): 0.409 nM | Ki (plasma kallikrein (pKal)): 0.312 nM

B11: 620I-X0142-E09 (bispecific antibody)
heavy: not shown
light: DIQMTQSPSTLSASVGDRVTITCRASQSISSWLAWYQQKPGKAPKLLIYKASTLESGVPSRFSGSGSGTEFTLTISSLQPDDFATYYCQQYNTYWTFGQGTKVEIKRTVAAPSVFIFPPSDEQLKSGTASVVCLLNNFYPREAKVQWKVDNALQSGNSQESVTEQDSKDSTYSLSSTLTLSKADYEKHKVYACEVTHQGLSSPVTKSFNRGEC
notes: also called 620I-X142-E09
Ki (Factor XIIa (FXIIa)): 0.163 nM | Ki (plasma kallikrein (pKal)): 0.174 nM

B12: 620I-X0138-A08 (bispecific antibody)
heavy: not shown
light: DIQMTQSPSTLSASVGDRVTITCRASQSISSWLAWYQQKPGKAPKLLIYKASTLESGVPSRFSGSGSGTEFTLTISSLQPDDFATYYCQQYNTYWTFGQGTKVEIKRTVAAPSVFIFPPSDEQLKSGTASVVCLLNNFYPREAKVQWKVDNALQSGNSQESVTEQDSKDSTYSLSSTLTLSKADYEKHKVYACEVTHQGLSSPVTKSFNRGEC
notes: also called 620I-X138-A08
Ki (Factor XIIa (FXIIa)): 0.357 nM | Ki (plasma kallikrein (pKal)): 0.92 nM

B13: 620I-X0138-A02 (bispecific antibody)
heavy: not shown
light: DIQMTQSPSTLSASVGDRVTITCRASQSISSWLAWYQQKPGKAPKLLIYKASTLESGVPSRFSGSGSGTEFTLTISSLQPDDFATYYCQQYNTYWTFGQGTKVEIKRTVAAPSVFIFPPSDEQLKSGTASVVCLLNNFYPREAKVQWKVDNALQSGNSQESVTEQDSKDSTYSLSSTLTLSKADYEKHKVYACEVTHQGLSSPVTKSFNRGEC
notes: also called 620I-X138-A02
Ki (Factor XIIa (FXIIa)): 0.288 nM | Ki (plasma kallikrein (pKal)): 0.206 nM

B14: 620I-X0136-G10 (bispecific antibody)
heavy: not shown
light: DIQMTQSPSTLSASVGDRVTITCRASQSISSWLAWYQQKPGKAPKLLIYKASTLESGVPSRFSGSGSGTEFTLTISSLQPDDFATYYCQQYNTYWTFGQGTKVEIKRTVAAPSVFIFPPSDEQLKSGTASVVCLLNNFYPREAKVQWKVDNALQSGNSQESVTEQDSKDSTYSLSSTLTLSKADYEKHKVYACEVTHQGLSSPVTKSFNRGEC
notes: also called 620I-X136-G10
Ki (Factor XIIa (FXIIa)): 0.028 nM | Ki (plasma kallikrein (pKal)): 0.171 nM

B15: 620I-X0136-G04 (bispecific antibody)
heavy: not shown
light: DIQMTQSPSTLSASVGDRVTITCRASQSISSWLAWYQQKPGKAPKLLIYKASTLESGVPSRFSGSGSGTEFTLTISSLQPDDFATYYCQQYNTYWTFGQGTKVEIKRTVAAPSVFIFPPSDEQLKSGTASVVCLLNNFYPREAKVQWKVDNALQSGNSQESVTEQDSKDSTYSLSSTLTLSKADYEKHKVYACEVTHQGLSSPVTKSFNRGEC
notes: also called 620I-X136-G04
Ki (Factor XIIa (FXIIa)): 0.107 nM | Ki (plasma kallikrein (pKal)): 0.179 nM

B16: 620I-X0136-F11 (bispecific antibody)
heavy: not shown
light: DIQMTQSPSTLSASVGDRVTITCRASQSISSWLAWYQQKPGKAPKLLIYKASTLESGVPSRFSGSGSGTEFTLTISSLQPDDFATYYCQQYNTYWTFGQGTKVEIKRTVAAPSVFIFPPSDEQLKSGTASVVCLLNNFYPREAKVQWKVDNALQSGNSQESVTEQDSKDSTYSLSSTLTLSKADYEKHKVYACEVTHQGLSSPVTKSFNRGEC
notes: also called 620I-X136-F11
Ki (Factor XIIa (FXIIa)): 0.235 nM | Ki (plasma kallikrein (pKal)): 0.201 nM

B17: 620I-X0136-G08 (bispecific antibody)
heavy: not shown
light: DIQMTQSPSTLSASVGDRVTITCRASQSISSWLAWYQQKPGKAPKLLIYKASTLESGVPSRFSGSGSGTEFTLTISSLQPDDFATYYCQQYNTYWTFGQGTKVEIKRTVAAPSVFIFPPSDEQLKSGTASVVCLLNNFYPREAKVQWKVDNALQSGNSQESVTEQDSKDSTYSLSSTLTLSKADYEKHKVYACEVTHQGLSSPVTKSFNRGEC
notes: also called 620I-X136-G08
Ki (Factor XIIa (FXIIa)): 0.028 nM | Ki (plasma kallikrein (pKal)): 0.176 nM

B18: 620I-X0142-A11 (bispecific antibody)
heavy: not shown
light: DIQMTQSPSTLSASVGDRVTITCRASQSISSWLAWYQQKPGKAPKLLIYKASTLESGVPSRFSGSGSGTEFTLTISSLQPDDFATYYCQQYNTYWTFGQGTKVEIKRTVAAPSVFIFPPSDEQLKSGTASVVCLLNNFYPREAKVQWKVDNALQSGNSQESVTEQDSKDSTYSLSSTLTLSKADYEKHKVYACEVTHQGLSSPVTKSFNRGEC
notes: also called 620I-X142-A11
Ki (Factor XIIa (FXIIa)): 0.195 nM | Ki (plasma kallikrein (pKal)): 0.158 nM

B19: 620I-X0137-C08 (bispecific antibody)
heavy: not shown
light: DIQMTQSPSTLSASVGDRVTITCRASQSISSWLAWYQQKPGKAPKLLIYKASTLESGVPSRFSGSGSGTEFTLTISSLQPDDFATYYCQQYNTYWTFGQGTKVEIKRTVAAPSVFIFPPSDEQLKSGTASVVCLLNNFYPREAKVQWKVDNALQSGNSQESVTEQDSKDSTYSLSSTLTLSKADYEKHKVYACEVTHQGLSSPVTKSFNRGEC
notes: also called 620I-X137-C08
Ki (Factor XIIa (FXIIa)): 0.034 nM | Ki (plasma kallikrein (pKal)): 0.153 nM

B20: 620I-X0142-A10 (bispecific antibody)
heavy: not shown
light: DIQMTQSPSTLSASVGDRVTITCRASQSISSWLAWYQQKPGKAPKLLIYKASTLESGVPSRFSGSGSGTEFTLTISSLQPDDFATYYCQQYNTYWTFGQGTKVEIKRTVAAPSVFIFPPSDEQLKSGTASVVCLLNNFYPREAKVQWKVDNALQSGNSQESVTEQDSKDSTYSLSSTLTLSKADYEKHKVYACEVTHQGLSSPVTKSFNRGEC
notes: also called 620I-X142-A10
Ki (Factor XIIa (FXIIa)): 0.389 nM | Ki (plasma kallikrein (pKal)): 0.175 nM
